Reference: PMC2667185

Target: Mus musculus XRCC2 full length (Mus musculus) (UniProt Q9CX47)
Experiment: two-hybrid; same mated yeast; liquid β-galactosidase assay with ONPG as substrate, in triplicate, constructs in both the GAL4 activating and DNA binding domains

UniProt Q9CX47, sequence (Q9CX47 whole entry, the tested form may be a part): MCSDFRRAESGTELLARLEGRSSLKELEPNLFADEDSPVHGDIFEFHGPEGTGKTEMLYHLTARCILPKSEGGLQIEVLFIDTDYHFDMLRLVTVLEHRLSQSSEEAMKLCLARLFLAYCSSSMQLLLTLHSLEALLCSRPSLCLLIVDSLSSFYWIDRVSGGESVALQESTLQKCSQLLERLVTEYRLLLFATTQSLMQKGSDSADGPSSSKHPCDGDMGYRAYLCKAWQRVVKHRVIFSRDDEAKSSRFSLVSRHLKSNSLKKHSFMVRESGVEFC

percent of the level of full-length RAD51D (β-galactosidase activity): 36%
Substance: Mus musculus RAD51DΔ8 (splice variant product, exon 8 excluded) (from UniProt O55230 4-223) (natural protein)
